One block for each binder: values may come before it.
Legend:
[1] = biological target: T1, SLC6A6 (solute carrier family 6 (neurotransmitter transporter, taurine), member 6) on human colorectal cancer … (human, UniProt P31641 1-620); test: flow cytometry on 10 colorectal cancer cell lines, antibody at 1 ug/mL
T1 construct: Endogenous protein on ten colorectal cancer cell lines (Caco-2, COLO201, DLD-1, HCT15, HCT116, HT-29, LoVo, SW480, SW620, WiDr); also called native SLC6A6
T1 sequence: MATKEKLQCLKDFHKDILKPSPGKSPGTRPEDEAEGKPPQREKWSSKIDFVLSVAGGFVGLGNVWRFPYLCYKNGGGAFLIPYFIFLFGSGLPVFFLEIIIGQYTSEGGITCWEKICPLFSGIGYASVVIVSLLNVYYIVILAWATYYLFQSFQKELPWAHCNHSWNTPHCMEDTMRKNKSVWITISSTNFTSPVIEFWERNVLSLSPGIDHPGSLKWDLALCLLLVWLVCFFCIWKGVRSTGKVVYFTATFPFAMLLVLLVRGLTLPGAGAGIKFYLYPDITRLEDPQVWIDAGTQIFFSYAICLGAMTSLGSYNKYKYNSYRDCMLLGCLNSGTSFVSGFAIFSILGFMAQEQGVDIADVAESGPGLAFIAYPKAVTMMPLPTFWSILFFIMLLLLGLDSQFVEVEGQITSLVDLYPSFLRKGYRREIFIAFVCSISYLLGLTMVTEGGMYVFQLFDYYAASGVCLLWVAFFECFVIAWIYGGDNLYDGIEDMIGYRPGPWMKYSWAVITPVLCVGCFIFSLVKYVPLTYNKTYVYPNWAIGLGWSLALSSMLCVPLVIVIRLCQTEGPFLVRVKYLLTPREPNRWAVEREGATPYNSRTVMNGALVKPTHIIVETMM
Method: Ten lines of colorectal cancer cells were each cultured to reach 90% confluency. The cells of each line were washed twice with PBS, detached with a scraper and collected into a 1.5 mL tube. 4B9b and 5H12d antibodies were each added to give a final concentration of 1 μg/mL, followed by reaction for 60 minutes. After washing twice with PBS+2% FBS, AlexaFluor 488-labeled goat anti-mouse IgG (Invitrogen) was added as a 1/1000 dilution in PBS+2% FBS, followed by reaction for 30 minutes. After washing twice with PBS+2% PBS(FBS?), the cells were analyzed by Guava Flow Cytometry (Millipore).

[2] = biological target: T2, partial protein of the extracellular region of SLC6A6 (amino acid residues 143 to 216), His tag at the … (human, UniProt P31641 143-216); test: ELISA on plate-bound recombinant SLC6A6 partial protein, antibody 0 to 40 ug/mL
T2 construct: also called SLC6A6 partial protein for screening; recombinant protein obtained in (6); not shown: His tag added to the C-terminal end (pET32 vector)
T2 sequence: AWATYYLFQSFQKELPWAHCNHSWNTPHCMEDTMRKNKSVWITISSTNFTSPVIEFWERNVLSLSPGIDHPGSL
Method: The recombinant protein obtained in (6) above (10 μg/ml) was dispensed in 100 μL volumes into MaxiSorp 96-well plates (Nunc) and adsorbed onto the plates at room temperature for 1 hour. After adsorption, each well was washed with TBS-T (25 mM Tris, 150 mM NaCl, 0.05% (v/v) Tween 20, pH 7.4) and charged with skimmed milk (GIBCO), which had been diluted at a concentration of 5% with TBS-T, to conduct blocking for 30 minutes at room temperature. After each well was washed three times with 200 μL TBS-T, […] ELISA plates in a volume of 100 μL per well, followed by reaction at room temperature for 1 hour. Each well was washed three times with […] TBS-T.
For use as a secondary antibody, anti-mouse IgG polyclonal antibody-HRP label (BETHYL) was diluted 5,000-fold with TBS-T. The above antibody dilution was added in a volume of 100 μL per well and reacted at room temperature for 30 minutes. Each well was washed three times with 200 μL TBS-T. Orthophenylenediamine (Sigma) was diluted with 50 mM carbonate-citrate buffer (pH 5.0) to give a final concentration of 0.5 mg/mL and mixed with 1/10,000 volumes of 35% (w/w) aqueous hydrogen peroxide (WAKO). […] The absorbance at 492 nm was measured with a plate reader (SpectraMax Plus 384, Molecular Devices) to analyze antibody titers, which were then used for selection of mice to be used for cell fusion. […]

binding result [1]: binds
B1: 4B9b antibody (produced by Mouse-Mouse hybridoma 4B9b, FERM BP-11413) (antibody, mouse IgM, V domains shown)
VH: QVKLQQSGAELMKPGASVKISCKATGYTFSRYWIEWVKQRPGHGLEWIGEILPGSGSTNYNEKFKGKATFTADTSSNTAYMQLSSLTSEDSAVYYCARGGFLGHYGFAYWGQGTLVTVSA
VL: DIQLTQSPTTMAASPGEKITITCSASSSISSNYLHWYQQKPGFSPKLLIYRTSNLASGVPARFSGSGSGTSYSLTIGTMEAEDVATYYCQQGSSIPYTFGGGTKLEIK
notes: also called anti-SLC6A6 antibody, 4B9b

binding result [2]: binds
B2: mouse IgG1-converted anti-SLC6A6 antibody (4B9b) (antibody, V domains shown)
VH: B1 VH
VL: DIQLTQSPTTMAASPGEKITITCSASSSISSNYLHWYQQKPGFSPKLLIYRTSNLASGVPARFSGSGSGTSYSLTIGTMEAEDVATYYCQQGSSIPYTFGGGTKLEIKR
notes: Expressed in Cos7 cells and purified on Protein G; also called mouse IgG-converted antibody; mouse IgG-chimerized antibody
